Assay results published in paper PMC4155600 (Journal of nucleic acids investigation, 2013).
Read-outs that look alike come from different tables or passages of the source.

Key:
SpPot1-DBD [1] = biological target: T1, SpPot1-DBD (Schizosaccharomyces pombe, UniProt O13988 1-389); assay: EMSA
T1 sequence: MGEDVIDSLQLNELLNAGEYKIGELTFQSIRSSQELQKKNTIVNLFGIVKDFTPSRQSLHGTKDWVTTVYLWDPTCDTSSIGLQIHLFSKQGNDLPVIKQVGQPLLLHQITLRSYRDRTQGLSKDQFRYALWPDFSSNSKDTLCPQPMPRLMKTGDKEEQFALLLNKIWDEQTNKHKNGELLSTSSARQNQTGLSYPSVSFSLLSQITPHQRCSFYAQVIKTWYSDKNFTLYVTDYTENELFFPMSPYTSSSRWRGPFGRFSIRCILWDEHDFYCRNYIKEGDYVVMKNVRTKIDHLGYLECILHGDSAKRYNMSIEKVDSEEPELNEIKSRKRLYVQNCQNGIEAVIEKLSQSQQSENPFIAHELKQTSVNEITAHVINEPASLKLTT

SpPot1-DBD [2] = biological target: T1, SpPot1-DBD; assay: EMSA; remark: listed apart in the source
SpPot1-DBD [3] = biological target: T1, SpPot1-DBD; assay: EMSA; remark: listed apart in the source
SpPot1-DBD [4] = biological target: T1, SpPot1-DBD; assay: EMSA; remark: listed apart in the source
SpPot1-DBD [5] = biological target: T1, SpPot1-DBD; assay: EMSA; remark: listed apart in the source
SpPot1 [6] = biological target: T2, SpPot1 (Schizosaccharomyces pombe, UniProt O13988 1-555)
T2 sequence: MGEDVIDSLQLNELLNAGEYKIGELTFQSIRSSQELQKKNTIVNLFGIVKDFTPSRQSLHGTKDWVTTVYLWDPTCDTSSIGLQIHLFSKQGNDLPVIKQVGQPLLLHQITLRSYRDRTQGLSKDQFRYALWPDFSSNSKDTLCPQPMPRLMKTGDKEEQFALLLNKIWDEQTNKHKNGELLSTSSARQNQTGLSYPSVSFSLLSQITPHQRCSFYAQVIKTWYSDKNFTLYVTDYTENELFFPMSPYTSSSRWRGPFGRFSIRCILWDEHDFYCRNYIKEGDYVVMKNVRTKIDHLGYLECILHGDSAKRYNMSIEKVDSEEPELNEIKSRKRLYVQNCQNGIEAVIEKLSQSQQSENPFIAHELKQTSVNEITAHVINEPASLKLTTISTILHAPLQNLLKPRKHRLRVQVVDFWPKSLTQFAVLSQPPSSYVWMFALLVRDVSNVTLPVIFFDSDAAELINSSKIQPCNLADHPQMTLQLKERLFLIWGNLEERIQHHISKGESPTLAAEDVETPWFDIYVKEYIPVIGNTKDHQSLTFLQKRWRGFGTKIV

SpPot1-DBD [7] = biological target: T1, SpPot1-DBD; assay: EMSA; remark: listed apart in the source
SpPot1 [8] = biological target: T2, SpPot1; assay: filter binding
SpPot1 [9] = biological target: T2, SpPot1; assay: filter binding; remark: listed apart in the source
SpPot1 [10] = biological target: T2, SpPot1; assay: filter binding; remark: listed apart in the source
SpPot1 [11] = biological target: T2, SpPot1; assay: filter binding; remark: listed apart in the source
SpPot1-DBD [12] = biological target: T1, SpPot1-DBD; assay: EMSA; remark: listed apart in the source
native gel or EMSA = biological target: the molecule itself; assay: native gel or EMSA
Cdc13 = biological target: T3, Cdc13 (Saccharomyces cerevisiae, UniProt P32797 1-924); assay: EMSA
T3 sequence: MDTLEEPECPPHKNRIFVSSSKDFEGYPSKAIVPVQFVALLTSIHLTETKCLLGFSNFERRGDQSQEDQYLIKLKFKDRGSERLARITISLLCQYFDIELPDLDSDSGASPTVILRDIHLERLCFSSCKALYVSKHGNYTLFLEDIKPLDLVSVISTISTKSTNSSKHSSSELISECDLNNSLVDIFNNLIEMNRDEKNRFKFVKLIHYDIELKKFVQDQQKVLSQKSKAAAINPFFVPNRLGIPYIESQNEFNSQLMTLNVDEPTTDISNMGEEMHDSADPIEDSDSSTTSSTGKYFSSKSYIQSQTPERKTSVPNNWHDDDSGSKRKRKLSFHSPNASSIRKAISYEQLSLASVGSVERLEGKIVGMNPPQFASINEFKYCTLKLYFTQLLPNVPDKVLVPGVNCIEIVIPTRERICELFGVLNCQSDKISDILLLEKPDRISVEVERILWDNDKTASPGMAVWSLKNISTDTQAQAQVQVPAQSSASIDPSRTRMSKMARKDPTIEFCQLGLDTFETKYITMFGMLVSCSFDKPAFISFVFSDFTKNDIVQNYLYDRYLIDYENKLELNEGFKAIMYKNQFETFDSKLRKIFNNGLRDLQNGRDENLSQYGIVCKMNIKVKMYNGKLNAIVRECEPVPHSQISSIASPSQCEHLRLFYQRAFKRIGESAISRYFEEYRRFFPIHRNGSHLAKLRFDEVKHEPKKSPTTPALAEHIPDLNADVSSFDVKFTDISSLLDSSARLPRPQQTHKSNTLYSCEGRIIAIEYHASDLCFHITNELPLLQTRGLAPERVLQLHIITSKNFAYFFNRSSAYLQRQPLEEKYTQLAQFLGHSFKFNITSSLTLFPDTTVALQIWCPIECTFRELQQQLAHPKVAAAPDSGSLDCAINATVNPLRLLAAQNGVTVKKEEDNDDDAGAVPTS

Question: Which results are given for GGTTACGGTTACGGT (ssDNA) [15mer]?
Answer: Kd (SpPot1-DBD [1]): 1.5 pM; Kd (SpPot1-DBD [2]): 10.3 pM; Kd (SpPot1-DBD [3]): 5 pM; Kd (SpPot1-DBD [4]): 4.2 pM; Kd (SpPot1-DBD [5]): 4.9 ± 0.8 pM; Kd (SpPot1 [6]): 5.2 ± 0.5 pM; Kd (SpPot1-DBD [7]): 1.6 pM

Question: What does the source list for GGTTACGGTTAC (ssDNA) [12mer]?
Answer: Kd (SpPot1 [8]): 100 pM; Kd (SpPot1 [9]): 700 pM; Kd (SpPot1 [10]): 130 pM; Kd (SpPot1 [11]): 14 pM; Kd (SpPot1 [6]): 6.7 ± 0.9 pM

Question: Which Kd (SpPot1-DBD [12]) does the source give for GGTTA (ssDNA) [d(GGTTA) 5mer] here?
Answer: Its Kd is ~10000 pM.

B1: Saccharomyces cerevisiae Cdc13 (1–924), full-length protein (natural protein, UniProt P32797 1-924, looked up)
chain: T3 sequence
Question: B1 was tested. Which “stoichiometry N” value (native gel or EMSA) did it give?
Answer: Its value is 2.

Question: With GTGTGGGTGTG (ssDNA) [Tel11] as the binder, how does the Kd (Cdc13) read?
Answer: The Kd was 13.4 ± 0.8 pM.
